From publication doi:10.1101/2024.04.30.591854 (2024)
Numbering of substitutions follows the chain as printed.

B1: KIR2DL1-Fc fusion protein (Fc fusion)
chain: HEGVHRKPSLLAHPGRLVKSEETVILQCWSDVMFEHFLLHREGMFNDTLRLIGEHHDGVSKANFSISRMTQDLAGTYRCYGSVTHSPYQVSAPSDPLDIVIIGLYEKPSLSAQLGPTVLAGENVTLSCSSRSSYDMYHLSREGEAHERRLPAGPKVNGTFQADFPLGPATHGGTYRCFGSFHDSPYEWSKSSDPLLVSVTGNPSNSWPSPTEPSSKTGNPRHLH
B2: KIR2DS1-Fc fusion protein (Fc fusion)
chain: B1 chain with T70K, V90L, L114P, P154T, D163N, H182R, K216E

Target: HLA-Cw4-β2m complex refolded with peptide (human | )
Assay: SPR

Binder | Kd
B1 | 6 µM
B2 | 23 µM
